Assay results from the RNAGym collection of RNA variant scans (doi:10.1073/pnas.2313332121).

B1: TPR t1 (parent)
chain: GACCAAUCUGCCCUCAGAGCUCGAGAACAUCUUCGGAUGCAGAGGAGGCAGGCUUCGGUGGCGCGAUAGCGCCAACGUCCUCAACCUCCAAUGCAUCCCACCACAUGAUGAUGCCUGAAGAGCCUUGGUUUUUUG

Variants of: B1
Test: polymerase ribozyme fitness, log enrichment relative to wild type (log ratio); higher = more active; in vitro selection for triplet polymerase activity
In short: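 Libraries of mutants in each subunit of a heterodimeric triplet polymerase ribozyme were generated by PCR and transcribed. In triplicate, each went through one in vitro selection round: annealing with biotinylated primer, partner subunit and triplets; frozen incubation at −7 °C; gel excision of extended constructs; streptavidin-bead capture; RT-PCR. Fitness, taken from Illumina sequencing of input and output libraries, is the logarithm of a genotype's enrichment over wild-type enrichment, averaged across replicates with inverse-variance weights. The logarithm is base 2, and genotypes needed ≥10 input reads and ≥1 read per output to be kept.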

**Q.** For G47U U78G G135A, which “polymerase ribozyme fitness (log ratio)” value is on record?
**A.** -1.83

**Q.** With G47U U81A G122U C123U U130C U131A as the variant, how does the “polymerase ribozyme fitness (log ratio)” value read?
**A.** -2.99

**Q.** For G47U U87A, which “polymerase ribozyme fitness (log ratio)” value is on record?
**A.** -2.55

**Q.** For G47U U92G G117C, which “polymerase ribozyme fitness (log ratio)” value is on record?
**A.** -7.27

**Q.** With G47U U96A as the variant, how does the “polymerase ribozyme fitness (log ratio)” value read?
**A.** -2.1

**Q.** Which “polymerase ribozyme fitness (log ratio)” value does the source give for G48A here?
**A.** -0.658

**Q.** For G48A A66U U78G, which “polymerase ribozyme fitness (log ratio)” value is on record?
**A.** -1.56

**Q.** For G48A C49G C56U, which “polymerase ribozyme fitness (log ratio)” value is on record?
**A.** -0.3

**Q.** Which “polymerase ribozyme fitness (log ratio)” value does the source give for G48A C53A U59G G61C here?
**A.** -0.194

**Q.** For G48A C53A U59G G61C C79U C101A U126A, which “polymerase ribozyme fitness (log ratio)” value is on record?
**A.** -3.84

**Q.** Which “polymerase ribozyme fitness (log ratio)” value does the source give for G48A C53U G63U G110A here?
**A.** -3.27

**Q.** Which “polymerase ribozyme fitness (log ratio)” value does the source give for G48A C56U C70A here?
**A.** -4.74

**Q.** Which “polymerase ribozyme fitness (log ratio)” value does the source give for G48A C62A C73U here?
**A.** -3.55

**Q.** For G48A C62A C82A C85G G110C U133A, which “polymerase ribozyme fitness (log ratio)” value is on record?
**A.** -7.12

**Q.** With G48A C64U C73A as the variant, how does the “polymerase ribozyme fitness (log ratio)” value read?
**A.** -0.705

**Q.** With G48A C70A G120U G128A G135A as the variant, how does the “polymerase ribozyme fitness (log ratio)” value read?
**A.** -2.26

**Q.** Which “polymerase ribozyme fitness (log ratio)” value does the source give for G48A C70U here?
**A.** -1.3

**Q.** Which “polymerase ribozyme fitness (log ratio)” value does the source give for G48A C70U C115A here?
**A.** -1.87

**Q.** With G48A C72G A103U A119G as the variant, how does the “polymerase ribozyme fitness (log ratio)” value read?
**A.** -3.79

**Q.** Which “polymerase ribozyme fitness (log ratio)” value does the source give for G48A C73U A119G here?
**A.** 0.718

**Q.** Which “polymerase ribozyme fitness (log ratio)” value does the source give for G48A C85U here?
**A.** -0.302

**Q.** Which “polymerase ribozyme fitness (log ratio)” value does the source give for G48A C89A here?
**A.** -1.71

**Q.** With G48A C115U C124U as the variant, how does the “polymerase ribozyme fitness (log ratio)” value read?
**A.** -1.31

**Q.** With G48A C123G as the variant, how does the “polymerase ribozyme fitness (log ratio)” value read?
**A.** 0.439

**Q.** For G48A G52A G60A C73U C82G C88U C102G, which “polymerase ribozyme fitness (log ratio)” value is on record?
**A.** -5.86

**Q.** For G48A G52U U55C U125A, which “polymerase ribozyme fitness (log ratio)” value is on record?
**A.** -2.1

**Q.** Which “polymerase ribozyme fitness (log ratio)” value does the source give for G48A G58A U78C G110A here?
**A.** -1.9

**Q.** With G48A G60U as the variant, how does the “polymerase ribozyme fitness (log ratio)” value read?
**A.** -0.531

**Q.** Which “polymerase ribozyme fitness (log ratio)” value does the source give for G48A G60U C104A here?
**A.** -1.82

**Q.** Which “polymerase ribozyme fitness (log ratio)” value does the source give for G48A G63A C86U U116A C124U here?
**A.** -2.18

**Q.** With G48A G63A C101A as the variant, how does the “polymerase ribozyme fitness (log ratio)” value read?
**A.** -2.45

**Q.** For G48A G63A U92C, which “polymerase ribozyme fitness (log ratio)” value is on record?
**A.** -3.14

**Q.** For G48A G63C C72U C124G, which “polymerase ribozyme fitness (log ratio)” value is on record?
**A.** -0.71

**Q.** With G48A G63C C82G G113U U132A as the variant, how does the “polymerase ribozyme fitness (log ratio)” value read?
**A.** -3.71

**Q.** Which “polymerase ribozyme fitness (log ratio)” value does the source give for G48A G63U here?
**A.** -0.443

**Q.** For G48A G63U C101A, which “polymerase ribozyme fitness (log ratio)” value is on record?
**A.** -2.69

**Q.** With G48A G69A as the variant, how does the “polymerase ribozyme fitness (log ratio)” value read?
**A.** -4.63

**Q.** Which “polymerase ribozyme fitness (log ratio)” value does the source give for G48A G71C A105C here?
**A.** -4.88

**Q.** With G48A G77A C88U as the variant, how does the “polymerase ribozyme fitness (log ratio)” value read?
**A.** -0.845

**Q.** For G48A G77U, which “polymerase ribozyme fitness (log ratio)” value is on record?
**A.** -2.11

**Q.** Which “polymerase ribozyme fitness (log ratio)” value does the source give for G48A G113A here?
**A.** -1.61

**Q.** Which “polymerase ribozyme fitness (log ratio)” value does the source give for G48A G117U here?
**A.** -2.2

**Q.** For G48A G122C C123G G127A, which “polymerase ribozyme fitness (log ratio)” value is on record?
**A.** -2.37

**Q.** Which “polymerase ribozyme fitness (log ratio)” value does the source give for G48A G127C here?
**A.** -2.52

**Q.** With G48A U54A A84U U129A as the variant, how does the “polymerase ribozyme fitness (log ratio)” value read?
**A.** -1.42

**Q.** Which “polymerase ribozyme fitness (log ratio)” value does the source give for G48A U54G C85U here?
**A.** -0.681

**Q.** Which “polymerase ribozyme fitness (log ratio)” value does the source give for G48A U59C C82A G93C U116G U131A here?
**A.** -4.51

**Q.** With G48A U92A U106A as the variant, how does the “polymerase ribozyme fitness (log ratio)” value read?
**A.** -3.9

**Q.** With G48A U96A C104U U131A as the variant, how does the “polymerase ribozyme fitness (log ratio)” value read?
**A.** -1.66

**Q.** For G48A U106C, which “polymerase ribozyme fitness (log ratio)” value is on record?
**A.** 0.21

**Q.** Which “polymerase ribozyme fitness (log ratio)” value does the source give for G48A U132A here?
**A.** -0.715

**Q.** With G48C as the variant, how does the “polymerase ribozyme fitness (log ratio)” value read?
**A.** -0.943

**Q.** Which “polymerase ribozyme fitness (log ratio)” value does the source give for G48C A83G G122U here?
**A.** -1.4

**Q.** For G48C A83U A108G, which “polymerase ribozyme fitness (log ratio)” value is on record?
**A.** -1.66

**Q.** For G48C A83U U87A, which “polymerase ribozyme fitness (log ratio)” value is on record?
**A.** -0.806

**Q.** Which “polymerase ribozyme fitness (log ratio)” value does the source give for G48C A95G U129C here?
**A.** -1.6

**Q.** Which “polymerase ribozyme fitness (log ratio)” value does the source give for G48C C49A C56U G93U here?
**A.** -1.8

**Q.** With G48C C49A U55C G61A A95G G110A as the variant, how does the “polymerase ribozyme fitness (log ratio)” value read?
**A.** -2.85

**Q.** Which “polymerase ribozyme fitness (log ratio)” value does the source give for G48C C49G C72U C97U U116G here?
**A.** -2.86

**Q.** With G48C C56A C72A U78A as the variant, how does the “polymerase ribozyme fitness (log ratio)” value read?
**A.** -1.06

**Q.** Which “polymerase ribozyme fitness (log ratio)” value does the source give for G48C C56U C101A U112C G135C here?
**A.** -0.346

**Q.** With G48C C70U as the variant, how does the “polymerase ribozyme fitness (log ratio)” value read?
**A.** -0.829

**Q.** Which “polymerase ribozyme fitness (log ratio)” value does the source give for G48C C72G here?
**A.** -0.77

**Q.** For G48C C72G C104A G120C G128A, which “polymerase ribozyme fitness (log ratio)” value is on record?
**A.** -4.3

**Q.** Which “polymerase ribozyme fitness (log ratio)” value does the source give for G48C C73G G93A C124A here?
**A.** -1.39

**Q.** For G48C C79A, which “polymerase ribozyme fitness (log ratio)” value is on record?
**A.** -3.15

**Q.** With G48C C85U G117U as the variant, how does the “polymerase ribozyme fitness (log ratio)” value read?
**A.** -3.32

**Q.** For G48C C115A, which “polymerase ribozyme fitness (log ratio)” value is on record?
**A.** -1.84

**Q.** For G48C G52A C102A A111C A119U, which “polymerase ribozyme fitness (log ratio)” value is on record?
**A.** -4.33

**Q.** Which “polymerase ribozyme fitness (log ratio)” value does the source give for G48C G60U here?
**A.** -2.22

**Q.** With G48C G69U as the variant, how does the “polymerase ribozyme fitness (log ratio)” value read?
**A.** -0.209

**Q.** For G48C G71A A108G U112C G117U, which “polymerase ribozyme fitness (log ratio)” value is on record?
**A.** -6.18

**Q.** For G48C G77A U130G, which “polymerase ribozyme fitness (log ratio)” value is on record?
**A.** -2.05

**Q.** With G48C G128A as the variant, how does the “polymerase ribozyme fitness (log ratio)” value read?
**A.** -3.43

**Q.** For G48C U55G C62A C79U A84C C85G G93U C124A, which “polymerase ribozyme fitness (log ratio)” value is on record?
**A.** -0.918

**Q.** Which “polymerase ribozyme fitness (log ratio)” value does the source give for G48C U78A here?
**A.** -0.274

**Q.** For G48C U78C G120C C124G, which “polymerase ribozyme fitness (log ratio)” value is on record?
**A.** 0.298

**Q.** For G48C U81A G127C, which “polymerase ribozyme fitness (log ratio)” value is on record?
**A.** -3.51

**Q.** Which “polymerase ribozyme fitness (log ratio)” value does the source give for G48C U106C here?
**A.** -1

**Q.** With G48C U106G as the variant, how does the “polymerase ribozyme fitness (log ratio)” value read?
**A.** -1.5

**Q.** For G48C U116G, which “polymerase ribozyme fitness (log ratio)” value is on record?
**A.** -3.09

**Q.** Which “polymerase ribozyme fitness (log ratio)” value does the source give for G48U here?
**A.** -0.903

**Q.** With G48U A50G as the variant, how does the “polymerase ribozyme fitness (log ratio)” value read?
**A.** -1.02
